Experimental findings from article PMC3182218, “Obesity Risk Gene TMEM18 Encodes a Sequence-Specific DNA-Binding Protein” are described below.

The data set concerns the target TMEM18 (UniProt Q96B42 1-140). Kind of data set: EMSA; 400 nM probe; EMSA: 10 mM Tris pH 7.4, 50 mM KCl, 1 mM DTT, 0.05% DDM, 30 min, RT; 4-20% TBE gel in 0.5x TBE. To be noted: protein: recombinant, tags: N-terminal Flag-His8, blunt. In general terms: In EMSA bound probe runs differently from free probe, usually more slowly.

Chain of TMEM18 (Q96B42 whole entry): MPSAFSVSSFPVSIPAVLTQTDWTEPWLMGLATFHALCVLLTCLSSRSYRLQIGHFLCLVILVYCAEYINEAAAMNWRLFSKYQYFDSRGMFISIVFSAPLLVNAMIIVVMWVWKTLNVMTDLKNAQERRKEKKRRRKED

B1: biotin-(GTG)8 (dsDNA)
DNA 1: GTGGTGGTGGTGGTGGTGGTGGTG
DNA 2: CACCACCACCACCACCACCACCAC
In the case of B1, for the setting “label: 5' biotin on (GTG)8 strand”, the binding result was “no binding”.

B2: biotin-(GCT)8 (dsDNA)
DNA 1: GCTGCTGCTGCTGCTGCTGCTGCT
DNA 2: AGCAGCAGCAGCAGCAGCAGCAGC
In the case of B2, the binding result (label: 5' biotin on (GCT)8 strand) is reported as “binds”.
